In one test the test system is all the cell lines. Put plainly: Zn or Ba alone on the cell lines. To be noted: all concentrations tested (up to 66 uM). It counts as cell-based. On the procedure:
(§1) Fetuin purified by modified Spiro method was further incubated with Zinc Acetate or Barium Acetate (0.25M) at room temperature for 1 hr. Free ions were removed by repetitive concentration against 20 volumes of PBS three times. Fetuin, Zn-charged fetuin and Ba-charged fetuin (5 uM) and PBS were then separately incubated with LNCaP cells for 4 hr. Percent of cells under apoptosis was determined by Hoechst staining and confirmed by MTS assay. Each data represents the average of two assays. Zn-charged or Ba-charged fetuin may contain free Zn or Ba (about 30 uM). However, all the cell lines are not affected by Zn or Ba alone at all concentrations tested (up to 66 uM).

The subject of another test is LNCaP cells. Put plainly: Fetuin-induced apoptosis, Hoechst staining confirmed by MTS assay. It counts as cell-based, Human. To be noted: for apoptosis-inducing activity in LNCaP cells: fetal vs mature fetuins at the same concentration. On the procedure:
The purified fetuin was tested on various cancer cell lines. […] The DNA condensation and breakage of nuclei which are the characteristics for apoptosis were observed by staining the cell with Hoechst dye at 0.1 ug/ml.
as §1
Various concentrations of Zn-charged fetuin prepared as described were incubated with cell lines for 6 hr. Percent of cell under apoptosis was determined by Hoechst staining and confirmed by MTS assay. The concentration of Zn-charged fetuin for the induction of 50% of cells under apoptosis (LD50) was determined. Each data represents the average of three assays.

Turning to `CC(=O)[O-].CC(=O)[O-].[Zn+2]` [Zn], the “effect of free ion alone on the cell lines” value in the test on all the cell lines is recorded as “not affected”.
Regarding `CC(=O)[O-].CC(=O)[O-].[Ba+2]` [Ba], the “effect of free ion alone on the cell lines” value in the test on all the cell lines is listed as “not affected”.

B1: commercial fetuin: commercial fetuin purchased from Sigma, prepared by the Pederson Method (protein, UniProt P12763 19-359, looked up)
Alpha-2-HS-glycoprotein: IPLDPVAGYKEPACDDPDTEQAALAAVDYINKHLPRGYKHTLNQIDSVKVWPRRPTGEVYDIEIDTLETTCHVLDPTPLANCSVRQQTQHAVEGDCDIHVLKQDGQFSVLFTKCDSSPDSAEDVRKLCPDCPLLAPLNDSRVVHAVEVALATFNAESNGSYLQLVEISRAQFVPLPVSVSVEFAVAATDCIAKEVVDPTKCNLLAEKQYGFCKGSVIQKALGGEDVRVTCTLFQTQPVIPQPQPDGAEAEAPSAVPDAAGPTPSAAGPPVASVVVGPSVVAVPLPLHRAHYDLRHTFSGVASVESSSGEAFHVGKTPIVGQPSIPGGPVRLCPGRIRYFKI
On to B1, for which the “apoptotic activity by method of preparation” value in the test with LNCaP cells (Pederson Method (Sigma) vs modified Spiro method) is “did not show apoptotic activity”.

B2: mature fetuin: fetuin isolated from mature bovine serum (protein, UniProt P12763 19-359, looked up)
Alpha-2-HS-glycoprotein: B1 Alpha-2-HS-glycoprotein
Consider B2, for which, in the test on LNCaP cells, the “apoptosis-inducing activity in LNCaP cells” value is “no activity inducing apoptosis”.

B3: human fetuin: human fetuin (Alpha 2-HS glycoprotein) isolated from adult human serum (protein, UniProt P02765 19-300; P02765 341-367, looked up)
Alpha-2-HS-glycoprotein chain … 1: APHGPGLIYRQPNCDDPETEEAALVAIDYINQNLPWGYKHTLNQIDEVKVWPQQPSGELFEIEIDTLETTCHVLDPTPVARCSVRQLKEHAVEGDCDFQLLKLDGKFSVVYAKCDSSPDSAEDVRKVCQDCPLLAPLNDTRVVHAAKAALAAFNAQNNGSNFQLEEISRAQLVPLPPSTYVEFTVSGTDCVAKEATEAAKCNLLAEKQYGFCKATLSEKLGGAEVAVTCMVFQTQPVSSQPQPEGANEAVPTPVVDPDAPPSPPLGAPGLPPAGSPPDSHVL
Alpha-2-HS-glycoprotein chain … 2: TVVQPSVGAAAGPVVPPCPGRIRHFKV
For B3, the “apoptosis-inducing activity in LNCaP cells” value with LNCaP cells is “fails to induce apoptosis”.

For the origin of these results see US20030044400A1, “Composition and method for treating cells” (priority 2001, published 2003).
